Patent US20240067748A1 (NONA BIOSCIENCES SUZHOU, published 2024)

T1: human Trop2 on cells (human, UniProt P09758 27-323)
T1 construct: whole, on cells; also called hTrop2; 293T-human Trop2 cells
T1 sequence (looked up): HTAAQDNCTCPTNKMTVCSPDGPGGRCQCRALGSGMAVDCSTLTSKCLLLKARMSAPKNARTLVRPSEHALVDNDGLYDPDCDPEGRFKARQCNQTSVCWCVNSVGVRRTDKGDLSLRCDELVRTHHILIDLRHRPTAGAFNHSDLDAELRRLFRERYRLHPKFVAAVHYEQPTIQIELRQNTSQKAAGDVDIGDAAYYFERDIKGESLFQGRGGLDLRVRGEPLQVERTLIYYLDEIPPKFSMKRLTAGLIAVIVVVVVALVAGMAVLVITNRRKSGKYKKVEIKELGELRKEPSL

T2: monkey Trop2 on CHO-K1 cells (monkey, UniProt A0A2K5UE71 27-323)
T2 construct: also called CHO-K1/monkey Trop2
T2 sequence: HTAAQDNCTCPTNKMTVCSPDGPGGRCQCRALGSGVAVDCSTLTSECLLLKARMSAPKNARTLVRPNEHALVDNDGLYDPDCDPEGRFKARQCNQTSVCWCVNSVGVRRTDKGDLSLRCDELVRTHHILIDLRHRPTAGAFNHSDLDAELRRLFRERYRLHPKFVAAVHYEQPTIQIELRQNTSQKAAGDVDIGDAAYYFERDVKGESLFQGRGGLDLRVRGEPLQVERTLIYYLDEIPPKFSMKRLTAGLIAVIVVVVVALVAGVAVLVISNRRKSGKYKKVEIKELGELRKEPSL

T3: mouse Trop2-his protein (Sino Biological, #50922-M08H) (mouse, UniProt Q8BGV3 25-270)
T3 construct: bought protein; also called mouse Trop2 protein; not shown: his tag
T3 sequence (looked up): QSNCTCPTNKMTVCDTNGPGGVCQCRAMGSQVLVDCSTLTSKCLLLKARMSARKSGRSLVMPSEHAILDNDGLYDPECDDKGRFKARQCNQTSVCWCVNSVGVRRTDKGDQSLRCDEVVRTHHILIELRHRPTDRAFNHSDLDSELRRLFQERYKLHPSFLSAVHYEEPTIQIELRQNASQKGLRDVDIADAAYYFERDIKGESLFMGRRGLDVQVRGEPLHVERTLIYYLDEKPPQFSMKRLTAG


What was measured:
human Trop2 on cells = biological target: T1, human Trop2 on cells; assay: flow cytometry on 293T-human Trop2 cells
Procedure, shortened: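 Cells at 1×10⁶/mL in PBS were incubated for 1 h, washed in PBS+0.5% BSA, then stained with Alexa Fluor 488 anti-human IgG for 1 h at 4 °C. Cell-bound fluorescence was measured by flow cytometry, with all steps on ice.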

[1] = biological target: T2, monkey Trop2 on CHO-K1 cells; assay: flow cytometry on CHO-K1/monkey Trop2 cells
Procedure: CHO-K1/monkey Trop2 cells (Chempartner, Shanghai, China) and CHO-K1 blast cells were each digested with 3 mL of TrypLE, and the digestion was stopped with 7 mL of the corresponding medium. […] The cell solution was centrifuged, and the cells were washed once with PBS+0.5% BSA. […] The cells were washed once with PBS+0.5% BSA. The cells were incubated at 4° C. for 1 h in the dark with 100 μL of Alexa Fluor 488 goat anti-human IgG (Life technologies, #A-11013) diluted at 1:1000, and washed twice with PBS+0.5% BSA. The cells were resuspended in 200 μL of PBS+0.5% BSA. The suspension was centrifuged at 4° C. for 5 min at 2000 rpm and tested using a FACS verse flow cytometer or NovoCyte flow cytometer (ACEA Biosciences). All procedures were performed on ice.

[2] = biological target: T3, mouse Trop2-his protein (Sino …); assay: ELISA, plate coated with mouse Trop2-his protein, anti-human IgG (H+L)-HRP, OD450 nm
Procedure: An ELISA plate was coated with 100 μL of 1 μg/mL mouse Trop2-his protein (Sino Biological, #50922-M08H) in PBS at 4° C. overnight. The plate was blocked with 200 μL of PBST (PBS+0.05% tween 20)+2% BSA at 37° C. for 1 h. The plate was washed 4 times with PBST. 100 μL of Trop2 antibody diluted in a gradient (5-fold dilution, starting concentration: 33.33 nM) was added to the ELISA plate and the plate was incubated at 37° C. for 1 h. The plate was washed 4 times with PBST. 100 μL of anti-human IgG (H+L)-HRP (Sigma, #A8667) diluted in 1:4000 was added and the plate was incubated at 37° C. for 1 h. The plate was washed 4 times with PBST. 100 μL of TMB substrate (Invitrogen, #88-7025-88) was added and the plate was incubated at room temperature for 5 min, and then 50 μL of stop buffer (BBI life sciences, #E661006-0200) was added to stop the reaction. The OD450 nm reading was recorded using a microplate reader (Perkin Elmer, EnSpire).

| EC50 (human Trop2 on cells) [nM] | Maximum (MFI) (human Trop2 on cells) | EC50 [1] [nM] | Maximum MFI value [1] [MFI] | Top % (human Trop2 on cells) [%] | binding result [2] | fold lower EC50 than the reference antibody hRS7 (human Trop2 on cells) [fold] | Binder |
| --- | --- | --- | --- | --- | --- | --- | --- |
| 0.753 | 6480 | 2.13 | 53100 | – | – | – | comparative example 2 antibody Tab (hRS7) (antibody, human IgG1, kappa, V domains shown, prepared on the basis of sacituzumab govitecan (ChemPartner, #T07-001); naked antibody) VH: QVQLQQSGSELKKPGASVKVSCKASGYTFTNYGMNWVKQAPGQGLKWMGWINTYTGEPTYTDDFKGRFAFSLDTSVSTAYLQISSLKADDTAVYFCARGGFGSSYWYFDVWGQGSLVTVSS VL: DIQLTQSPSSLSASVGDRVSITCKASQDVSIAVAWYQQKPGKAPKLLIYSASYRYTGVPDRFSGSGSGTDFTLTISSLQPEDFAVYYCQQHYITPLTFGAGTKVEIKR |
| 0.325 | 6850 | 3.33 | 46400 | 106 | binds | – | PR001139 (antibody, human IgG1, kappa, V domains shown, fully human IgG1/kappa; also called antibody No. (8)) VH: QVQLVESGGGVVQPGRSLRLSCAASGFTFSSFGMQWVRQGPGKGLEWVAVMWFDGSNKYYVDSVKGRFTISRDNSKNTLYLQMNSLRAEDTAVYYCARLDFSGWPLIDYWGQGTLVTVSS VL: not shown |
| 0.995 | 7200 | 2.87 | 55300 | 111 | no binding | – | PR001133 (antibody, human IgG1, kappa, V domains shown, fully human IgG1/kappa; also called antibody No. (5)) VH: QVNLVESGGGVVQPGRSLKLSCAASGFTFSSYGMHWVRQAPGKGLEWVALIWSDGTNRYYTESVKGRFTISRDNSKNTLSLQMKSLRAEDTAVYYCAKDGWGTYGEYFQHWGQGTLVTVSS VL: DIQMTQSPSSLSASVGDRVTITCRASQNINSYLHWYQQKPGKAPKLLIYAASSLQSGVPSRFSGSGSGTDFTLTISSLQPEDFAIYYCQQSYSIPPITFGQGTRLEIKR |
| 0.414 | 6460 | – | – | 99.7 | no binding | – | PR001165 (antibody, human IgG1, kappa, V domains shown, fully human IgG1/kappa; also called antibody No. (26)) VH: QVQLVESGGGVVQPGRSLRLSCEASGFTFSHYGMHWVRQAPGKGLEWVAVIWYDGIKTYYVESVKGRFTISRDNSKNTLNLQMNRLRAEDTAVYYCARDGGFGESNYYGLDVWGQGTTVTVSS VL: DIQLTQSPSFLSASVGDRVTITCRASQGISSYLGWYQQKPGKAPKLLIYIASTLQSGVPSRFSGSGSGTEFTLTISSLQPEDFATYYCQQLNSYPYTFGQGTKLEIKR |
| 0.158 | 5850 | 2.25 | 45500 | 90.2 | no binding | ~3 | PR001162 (antibody, human IgG1, kappa, V domains shown, fully human IgG1/kappa; also called antibody No. (23)) VH: QVQLVESGGGVVQPGTSLRLSCVASGFTFSNDGMHWVRQAPGMGLEWVAIMWFDGGSKYYADSVKGRFTISRDNSKNTLYLQMNNLRAEDTAVYYCARDHPHYLGSGSFDYWGQGTLVTVSS VL: EIVLTQSPATLSLSPGERATLSCRASQSVSSYLAWYQQKPGQAPRLLIYDASNRATGIPARFSGSGSGTDFTLTISSLQAEDVAVYYCQQYYSTPYTFGQGTKLEIKR |
| 2.06 | 6820 | 6.26 | 61700 | 105 | no binding | – | PR001130 (antibody, human IgG1, kappa, V domains shown, fully human IgG1/kappa; also called antibody No. (2)) VH: QVQLQESGPGLVKPSGTLSLTCAVSGDSISSHNWWSWVRQPPGKGLEWIGEIYHSGITSYNPSLKSRVTISVDKSKNQFSLKLNSVTAADTAMYYCARGSGVISYFDYWGQGTLVTVSS VL: DIQMTQSPSTLSASVGDRVTITCRASQSIGNWLAWYQQKPGKAPKLLIYKASSLESGVPSRFSGSGSGTEFTLTISSLQPDDFATYYCQQYDSYSPITFGQGTRLEIKR |
| 0.23 | 6510 | 2.1 | 51200 | 101 | no binding | ~3 | PR001142 (antibody, human IgG1, kappa, V domains shown, fully human IgG1/kappa; also called antibody No. (9)) VH: QVQLQESGPGLVKPSGTLSLTCAVSGDSISSNNWWSWVRQPPGKGLEWIGEIYPGGNPNYNPSLKSRVTISVDKSKNQFSLKLNSVTAADTAVYYCARGSGVISYFDYWGQGTLVTVSS VL: DIQMTQSPSTLSASVGDRVTITCRASQSIGHWLAWYQQKPGKAPKLLIYKASSLESGVPSRFRGSGSGTEFTLTISSLQPDDFATYYCQQYSSYSPITFGQGSRLEIKR |
| 0.204 | 7050 | 1.97 | 51500 | 109 | binds | ~3 | PR001166 (antibody, human IgG1, kappa, V domains shown, fully human IgG1/kappa; also called antibody No. (27)) VH: QVQLQESGPGLVKPSETLSLTCAVSGYSISSGYFWAWIRQPPGKGLEWIGSIYHSGRTHYNPSLKSRVIISLDTSKNQFSLKLRSVTAADSAVYYCAREGYASGSYYWGQGTLVTVSS VL: EIVMTQSPATLSVSPGERATLSCRSSQSVNNYLAWFQQKPGQAPRLLIYDSSTRATGIPARFSGSGSGTEFTLTISSLQSEDFAFYFCQQYENWPLTFGGGTKVEIKR |
| 0.466 | 6850 | 2.57 | 53200 | 106 | no binding | – | PR001128 (antibody, human IgG1, kappa, V domains shown, fully human IgG1/kappa; also called antibody No. (1)) VH: QVQLQESGPGLVKPSGTLSLTCAVSGGSISSSNWWSWVRQPPGKGLEWIGEIFHSGTTYYNPSLKSRVTILVDKSKNQFSLKLSSVTAADTAVYYCARDNTKSWDHFDHWGQGTLVTVSS VL: EIVLTQSPATLSLSPGERATLSCRASQSVGSYLAWYQQKPGQAPSLLIYDASNRATGIPARFSGSGSGTDFTLTISSLEPEDFAVYYCQQRTNWYTFGQGTKLEIKR |
